How the values were obtained:
[1] = Relative enzymatic activity of GLD (DCIP/1-m-PMS, plate reader, yeast culture supernatant) with proflavin hydrochloride present; assay type: biochemical; settings: site-specific mutants, inhibitor final concentration 1 mM
Experimental: The susceptibility defined in the present specification is evaluated in terms of a relative activity that is determined in a system wherein the inhibitor coexists or not. The relative activity is derived from a relative value (%) of an enzymatic activity (a sample value) obtained with the addition of the inhibitor in the determination of the enzymatic activity described in the present specification as compared with an enzymatic activity (a blank value) as “100%” obtained without the addition of the inhibitor in the same determination. Thus, the higher the relative activity is, the less the susceptibility to the inhibitor is (or the more the susceptibility to the inhibitor is reduced), vice versa.
The enzymatic activity is determined in the following manner in Examples 3 and 6 wherein a plate reader (Japan Molecular Device Corporation, SpectraMax Plus384) is used. Thus, culture supernatant that had been diluted in advance with an appropriate magnification is added to a 96-well microplate with an amount of 100 μl per well. A reagent for the determination of the enzymatic activity comprising phosphate buffer (pH 7.0), 1.0 M D-glucose, 3 mM DCIP, 3 mM 1-m-PMS and methanol with a volume ratio of 0.1:1:0.14:0.2:0.06 is added to the 96-well microplate with an amount of 100 μl per well, and a change in the absorbance of DCIP at 600 nm (ΔABS/min) is then determined. The enzymatic activity can be calculated by conversion in proportion to a change in the absorbance of an enzyme solution for which the enzymatic activity has already been known by the above-mentioned activity determination procedure using the spectrophotometer.
In the following examples, a value of the enzymatic activity determined by the spectrometer or plate reader using the above reagent composition is considered as a blank value. On the other hand, a sample value is determined using a methanol solution comprising the inhibitor such as 1,10-phenanthroline or proflavin hydrochloride at a final concentration of 1 mM instead of the methanol. Enzymatic activity (unit/mL)=(−ΔABS/16.3)×3.0/0.05×(Dilution ratio of enzyme) [Equation 1]

[2] = Relative enzymatic activity of GLD (DCIP/1-m-PMS, plate reader, yeast culture supernatant) with 1,10-phenanthroline present; assay type: biochemical; settings: site-specific mutants, inhibitor final concentration 1 mM
In short: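 Yeast transformants grown in YPD, 30° C., 24 h; diluted culture supernatant assayed in phosphate buffer pH 7.0 with D-glucose, DCIP and 1-m-PMS, DCIP absorbance change at 600 nm. Relative activity (%) = activity with 1 mM 1,10-phenanthroline (final, replacing methanol) divided by activity without it.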

Molecule | Relative Activity [%] Proflavin hydrochloride [1] [%] | Relative Activity [%] 1,10-Phenanthroline [2] [%]
G352I: modified GLD: SEQ ID NO: 1 with substitution G352I (protein, listed as Aspergillus terreus, SIGNAL (1)..(19)) MLGKLSFLSALSLAVAAPLSNSTSAKYDYIVIGGGTSGLAVANRLSEDPNVNVLILEAGGSVWNNPNVTNVDGYGLAFGSDIDWQYQSVNQPYGGNLSQVLRAGKALGGTSTINGMAYTRAEDVQIDAWETIGNTGWTWKNLFPYYRKSENFTVPTKSQTSLGASYEAGAHGHEGPLDVAFTQIESNNLTTYLNRTFQGMGLPWTEDVNGGKMRGFNLYPSTVNLEEYVREDAARAYYWPYKSRPNLHVLLNTFANRIVWDGEAHDGHITASGVEITSRNGTVRVINAEKEVIVSAGALKSPAILELSGIGNPSVLDKHNIPVKVNLPTVGENLQDQVNSHMDASGNTSISITKAVSYPDVYDVFGDEAESVAKQIRANLKQYAADTAKANGNIMKAADLERLFEVQYDLIFKGRVPIAEVLNYPGSATSVFAEFWALLPFARGSVHIGSSNPAEFPVINPNYFMLDWDAKSYVAVAKYIRRSFESYPLSSIVKESTPGYDVIPRNASEQSWKEWVFDKNYRSNFHPVGTAAMMPREIGGVVDERLNVYGTTNVRVVDASVLPFQVCGHLVSTLYAVAERAADLIKADAGRR | 60.9 | 85.5
G352K: modified GLD: SEQ ID NO: 1 with substitution G352K (protein, listed as Aspergillus terreus, SIGNAL (1)..(19)) MLGKLSFLSALSLAVAAPLSNSTSAKYDYIVIGGGTSGLAVANRLSEDPNVNVLILEAGGSVWNNPNVTNVDGYGLAFGSDIDWQYQSVNQPYGGNLSQVLRAGKALGGTSTINGMAYTRAEDVQIDAWETIGNTGWTWKNLFPYYRKSENFTVPTKSQTSLGASYEAGAHGHEGPLDVAFTQIESNNLTTYLNRTFQGMGLPWTEDVNGGKMRGFNLYPSTVNLEEYVREDAARAYYWPYKSRPNLHVLLNTFANRIVWDGEAHDGHITASGVEITSRNGTVRVINAEKEVIVSAGALKSPAILELSGIGNPSVLDKHNIPVKVNLPTVGENLQDQVNSHMDASGNTSISKTKAVSYPDVYDVFGDEAESVAKQIRANLKQYAADTAKANGNIMKAADLERLFEVQYDLIFKGRVPIAEVLNYPGSATSVFAEFWALLPFARGSVHIGSSNPAEFPVINPNYFMLDWDAKSYVAVAKYIRRSFESYPLSSIVKESTPGYDVIPRNASEQSWKEWVFDKNYRSNFHPVGTAAMMPREIGGVVDERLNVYGTTNVRVVDASVLPFQVCGHLVSTLYAVAERAADLIKADAGRR | 32.7 | 82.5
G352L: modified GLD: SEQ ID NO: 1 with substitution G352L (protein, listed as Aspergillus terreus, SIGNAL (1)..(19)) MLGKLSFLSALSLAVAAPLSNSTSAKYDYIVIGGGTSGLAVANRLSEDPNVNVLILEAGGSVWNNPNVTNVDGYGLAFGSDIDWQYQSVNQPYGGNLSQVLRAGKALGGTSTINGMAYTRAEDVQIDAWETIGNTGWTWKNLFPYYRKSENFTVPTKSQTSLGASYEAGAHGHEGPLDVAFTQIESNNLTTYLNRTFQGMGLPWTEDVNGGKMRGFNLYPSTVNLEEYVREDAARAYYWPYKSRPNLHVLLNTFANRIVWDGEAHDGHITASGVEITSRNGTVRVINAEKEVIVSAGALKSPAILELSGIGNPSVLDKHNIPVKVNLPTVGENLQDQVNSHMDASGNTSISLTKAVSYPDVYDVFGDEAESVAKQIRANLKQYAADTAKANGNIMKAADLERLFEVQYDLIFKGRVPIAEVLNYPGSATSVFAEFWALLPFARGSVHIGSSNPAEFPVINPNYFMLDWDAKSYVAVAKYIRRSFESYPLSSIVKESTPGYDVIPRNASEQSWKEWVFDKNYRSNFHPVGTAAMMPREIGGVVDERLNVYGTTNVRVVDASVLPFQVCGHLVSTLYAVAERAADLIKADAGRR | 43.7 | 80.7

Source: patent US8969060B2, “Modified glucose dehydrogenase” (Ikeda Food Research Co., Ltd., priority 2011, dated 2015)
